Consider 1 molecule from paper PMC6113224, “Structural basis of cell wall peptidoglycan amidation by the GatD/MurT complex of Staphylococcus aureus” (Scientific Reports, 2018).

The target in the test is T1, GatD (glutamine amidotransferase-like protein GatD of Staphylococcus aureus) (Staphylococcus aureus, UniProt A0A0H2WZ38 1-243).
T1 construct: GatD, glutamine amidotransferase-like subunit of the GatD/MurT Lipid II amidation complex, Staphylococcus aureus; full length; source: E. coli BL21, co-expressed with MurT from pET21b (gatD/murT operon), purified (Ni-NTA, two rounds of SEC)
T1 sequence (looked up): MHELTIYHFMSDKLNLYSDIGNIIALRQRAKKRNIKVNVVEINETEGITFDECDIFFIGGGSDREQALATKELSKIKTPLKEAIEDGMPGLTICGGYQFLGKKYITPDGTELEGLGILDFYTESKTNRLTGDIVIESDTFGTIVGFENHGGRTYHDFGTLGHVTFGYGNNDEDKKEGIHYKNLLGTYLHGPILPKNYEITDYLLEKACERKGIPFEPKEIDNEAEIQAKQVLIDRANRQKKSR
The experiment in a line: SAXS; two-fold dilution series 0.5 to 8 mg/mL of GatD/MurT in SEC II buffer, extrapolated to zero concentration; beamline P12, DESY. As to conditions: both partners purified.

B1: MurT (Mur ligase homolog MurT of Staphylococcus aureus) (enzyme, UniProt A0A0H2WZQ7 1-437, looked up)
chain: MRQWTAIHLAKLARKASRAVGKRGTDLPGQIARKVDTDILRKLAEQVDDIVFISGTNGKTTTSNLIGHTLKANNIQIIHNNEGANMAAGITSAFIMQSTPKTKIAVIEIDEGSIPRVLKEVTPSMMVFTNFFRDQMDRFGEIDIMVNNIAETISNKGIKLLLNADDPFVSRLKIASDTIVYYGMKAHAHEFEQSTMNESRYCPNCGRLLQYDYIHYNQIGHYHCQCGFKREQAKYEISSFDVAPFLYLNINDEKYDMKIAGDFNAYNALAAYTVLRELGLNEQTIKNGFETYTSDNGRMQYFKKERKEAMINLAKNPAGMNASLSVGEQLEGEKVYVISLNDNAADGRDTSWIYDADFEKLSKQQIEAIIVTGTRAEELQLRLKLAEVEVPIIVERDIYKATAKTMDYKGFTVAIPNYTSLAPMLEQLNRSFEGGQS
notes: MurT, Mur ligase homolog subunit of the GatD/MurT Lipid II amidation complex, Staphylococcus aureus; full length, untagged; MurT residues 1-35, 195-196 and 434-437 are not seen in the crystal structure
As to B1, the “stoichiometry N” value was 1.
